Key:
HLA-A*02:03 = assay: IEDB peptide-MHC binding, purified MHC/direct/fluorescence; filed as Kd, often an IC50 or EC50 that approximates it; ≥ and ≤ were set here for values at or beyond the usual limits of such assays
HLA-B*15:17 [1] = assay: as above
HLA-A*02:16 = assay: as above
HLA-A*02:11 = assay: as above
HLA-A*02:12 = assay: as above
HLA-B*57:01 = assay: as above
HLA-B*27:03 [2] = assay: as above
HLA-A*02:01 = assay: as above
HLA-A*23:01 = assay: as above
HLA-A*69:01 = assay: as above
HLA-A*02:19 = assay: as above
HLA-A*03:01 = assay: as above
HLA-B*18:01 = assay: as above
HLA-A*24:03 = assay: as above
HLA-A*29:02 = assay: as above
HLA-B*39:01 [3] = assay: as above; details: source organism: Vibrio cholerae O395
HLA-B*15:01 = assay: as above
HLA-B*46:01 = assay: as above
HLA-A*26:01 [4] = assay: as above
HLA-B*51:01 [5] = assay: as above
HLA-A*68:02 = assay: as above
HLA-B*48:01 = assay: as above; details: source organism: Orthohantavirus andesense
HLA-B*08:01 = assay: as above; details: source organism: Orthohantavirus andesense
HLA-B*44:02 = assay: as above; details: source organism: Orthohantavirus andesense
HLA-A*11:01 = assay: as above; details: source organism: Orthohantavirus andesense
HLA-A*01:01 = assay: as above; details: source organism: Orthohantavirus andesense
HLA-B*58:01 = assay: as above; details: source organism: Orthohantavirus andesense
HLA-B*40:01 = assay: as above; details: source organism: Orthohantavirus andesense
HLA-A*31:01 = assay: as above; details: source organism: Orthohantavirus andesense
HLA-B*07:02 = assay: as above; details: source organism: Orthohantavirus andesense
HLA-B*27:05 = assay: as above; details: source organism: Orthohantavirus andesense
HLA-B*15:17 [6] = assay: IEDB peptide-MHC binding, purified MHC/competitive/fluorescence; filed as Kd, often an IC50 or EC50 that approximates it; ≥ and ≤ were set here for values at or beyond the usual limits of such assays; details: source organism: Lechiguanas virus
HLA-B*27:03 [7] = assay: as above; details: source organism: Lechiguanas virus
HLA-B*39:01 [8] = assay: as above; details: source organism: Lechiguanas virus
HLA-A*26:01 [9] = assay: as above; details: source organism: Lechiguanas virus
HLA-B*51:01 [10] = assay: as above; details: source organism: Lechiguanas virus
[11] = source organism: Vibrio cholerae O395
[12] = source organism: Rio Mamore hantavirus
[13] = source organism: Orthohantavirus andesense
[14] = source organism: Giardia lamblia ATCC 50803

VVSEIDLQW
Kd (HLA-A*02:03; [11]): ≥ 20 µM | Kd (HLA-B*15:17 [1]; [11]): 0.002 µM | Kd (HLA-A*02:16; [11]): ≥ 20 µM | Kd (HLA-A*02:11; [11]): ≥ 20 µM | Kd (HLA-A*02:12; [11]): ≥ 20 µM | Kd (HLA-B*57:01; [11]): ≥ 20 µM | Kd (HLA-B*27:03 [2]; [11]): ≥ 20 µM | Kd (HLA-A*02:01; [11]): ≥ 20 µM | Kd (HLA-A*23:01; [11]): ≥ 20 µM | Kd (HLA-A*69:01; [11]): ≥ 20 µM | Kd (HLA-A*02:19; [11]): ≥ 20 µM | Kd (HLA-A*03:01; [11]): ≥ 20 µM | Kd (HLA-B*18:01; [11]): ≥ 20 µM | Kd (HLA-A*24:03; [11]): ≥ 20 µM | Kd (HLA-A*29:02; [11]): ≥ 20 µM | Kd (HLA-B*39:01 [3]): ≥ 20 µM | Kd (HLA-B*15:01; [11]): ≥ 20 µM | Kd (HLA-B*46:01; [11]): ≥ 20 µM | Kd (HLA-A*26:01 [4]; [11]): ≥ 20 µM | Kd (HLA-B*51:01 [5]; [11]): ≥ 20 µM | Kd (HLA-A*68:02; [11]): ≥ 20 µM

YRRKLTNPA
Kd (HLA-B*48:01): ≥ 20 µM | Kd (HLA-A*02:12; [12]): ≥ 20 µM | Kd (HLA-B*57:01; [13]): ≥ 20 µM | Kd (HLA-A*02:01; [13]): ≥ 20 µM | Kd (HLA-A*23:01; [12]): ≥ 20 µM | Kd (HLA-B*08:01): 1.12 µM | Kd (HLA-A*69:01; [13]): ≥ 20 µM | Kd (HLA-A*03:01; [13]): ≥ 20 µM | Kd (HLA-B*18:01; [13]): ≥ 20 µM | Kd (HLA-A*24:03; [12]): ≥ 20 µM | Kd (HLA-B*44:02): ≥ 20 µM | Kd (HLA-A*29:02; [13]): ≥ 20 µM | Kd (HLA-A*11:01): ≥ 20 µM | Kd (HLA-A*01:01): ≥ 20 µM | Kd (HLA-B*58:01): ≥ 20 µM | Kd (HLA-B*15:01; [13]): ≥ 20 µM | Kd (HLA-B*46:01; [13]): ≥ 20 µM | Kd (HLA-B*40:01): ≥ 20 µM | Kd (HLA-A*31:01): ≥ 20 µM | Kd (HLA-A*68:02; [12]): ≥ 20 µM | Kd (HLA-B*07:02): ≥ 20 µM | Kd (HLA-B*27:05): ≥ 20 µM | Kd (HLA-B*15:17 [6]): ≥ 20 µM | Kd (HLA-B*27:03 [7]): ≥ 20 µM | Kd (HLA-B*39:01 [8]): ≥ 20 µM | Kd (HLA-A*26:01 [9]): ≥ 20 µM | Kd (HLA-B*51:01 [10]): ≥ 20 µM

MHDPHSIPL
Kd (HLA-A*02:03; [14]): ≥ 20 µM | Kd (HLA-B*15:17 [1]; [14]): ≥ 20 µM | Kd (HLA-A*02:16; [14]): ≥ 20 µM | Kd (HLA-A*02:11; [14]): ≥ 20 µM | Kd (HLA-A*02:12; [14]): ≥ 20 µM | Kd (HLA-B*57:01; [14]): ≥ 20 µM | Kd (HLA-B*27:03 [2]; [14]): ≥ 20 µM | Kd (HLA-A*02:01; [14]): ≥ 20 µM | Kd (HLA-A*23:01; [14]): ≥ 20 µM | Kd (HLA-A*69:01; [14]): ≥ 20 µM | Kd (HLA-A*02:19; [14]): ≥ 20 µM | Kd (HLA-A*03:01; [14]): ≥ 20 µM | Kd (HLA-B*18:01; [14]): ≥ 20 µM | Kd (HLA-A*24:03; [14]): ≥ 20 µM | Kd (HLA-A*29:02; [14]): ≥ 20 µM | Kd (HLA-B*15:01; [14]): ≥ 20 µM | Kd (HLA-B*46:01; [14]): ≥ 20 µM | Kd (HLA-A*26:01 [4]; [14]): ≥ 20 µM | Kd (HLA-B*51:01 [5]; [14]): ≥ 20 µM | Kd (HLA-A*68:02; [14]): ≥ 20 µM

— the Immune Epitope Database (IEDB)
